Measurements as given in paper PMC7325863 (Neurobiology of aging, 2019).

Target: Presenilin 1 (mouse (endogenous in primary neurons of …, UniProt P49769 1-467))
Experiment: co-IP

B1: Synaptotagmin 1 (natural protein)
chain: MVSASRPEALAAPVTTVATLVPHNATEPASPGEGKEDAFSKLKQKFMNELHKIPLPPWALIAIAIVAVLLVVTCCFCVCKKCLFKKKNKKKGKEKGGKNAINMKDVKDLGKTMKDQALKDDDAETGLTDGEEKEEPKEEEKLGKLQYSLDYDFQNNQLLVGIIQAAELPALDMGGTSDPYVKVFLLPDKKKKFETKVHRKTLNPVFNEQFTFKVPYSELGGKTLVMAVYDFDRFSKHDIIGEFKVPMNTVDFGHVTEEWRDLQSAEKEEQEKLGDICFSLRYVPTAGKLTVVILEAKNLKKMDVGGLSDPYVKIHLMQNGKRLKKKKTTIKKNTLNPYYNESFSFEVPFEQIQKVQVVVTVLDYDKIGKNDAIGKVFVGYNSTGAELRHWSDMLANPRRPIAQWHTLQVEEEVDAMLAVKK
B1 was tested, and the “fold change of co-precipitated Syt-1/PS1, old against young neurons (-KCl)” value was 1.79 fold.
